No end group written: not given here. *: point of attachment. Biotin = O=C1N[C@H]2[C@H](CS[C@H]2CCCCC(=O)*)N1
Experiments:
peptide P15 = target: T1, peptide P15; assay: titration of purified mAb 2 against peptides, ELISA A450; rank order
T1 sequence (peptide, biotin at the N-terminus, linked by the SGSG linker): SGSGCIFSPQIEEPSQCPA

peptide O28 (human) = assay: as above
peptide P9 = target: T2, peptide P9; assay: as above
T2 sequence (peptide, biotin at the N-terminus, linked by the SGSG linker): SGSGCIFSPQIEAPSQCPD

peptide P20 = target: T3, peptide P20; assay: as above
T3 sequence (peptide, biotin at the N-terminus, linked by the SGSG linker): SGSGQIEAPSQCPDCVVSA

peptide P7 = target: T4, peptide P7; assay: as above
T4 sequence (peptide, biotin at the N-terminus, linked by the SGSG linker): SGSGCIFSPQAEEPSQCPD

peptide P25 = target: T5, peptide P25; assay: as above
T5 sequence (peptide, biotin at the N-terminus, linked by the SGSG linker): SGSGQIEEPSQCADCVVSA

peptide P10 = target: T6, peptide P10; assay: as above
T6 sequence (peptide, biotin at the N-terminus, linked by the SGSG linker): SGSGCIFSPQIEEASQCPD

peptide P19 = target: T7, peptide P19; assay: as above
T7 sequence (peptide, biotin at the N-terminus, linked by the SGSG linker): SGSGQIAEPSQCPDCVVSA

peptide P17 = target: T8, peptide P17; assay: as above
T8 sequence (peptide, biotin at the N-terminus, linked by the SGSG linker): SGSGAIEEPSQCPDCVVSA

peptide O27 = target: T9, peptide O27; assay: Pepscan / alanine scan peptide ELISA on streptavidin plates, A450
T9 construct: Negative control peptide
T9 peptide: Biotin-SGSGQSEVHCIFSPQIEEP
Description: Variations of peptides O28 and O29, where each amino acid residue was sequentially substituted for an alanine residue, were synthesised. Streptavidin-coated plates (Pierce/Thermo Scientific, #15520) were blocked with 3% BSA/PBS at room temperature. The peptides were dissolved in DMSO and stored according to manufacturer's recommendation. Streptavidin-coated plates were coated with each peptide (5 μg/mL) overnight at room temperature. Wells were washed before hybridoma supernatant or purified monoclonal antibody was added to the each well. HRP-conjugated anti-mouse antibody was added to detect bound monoclonal antibodies. ELISA substrate (Bio-Rad #172-1067) solution was prepared freshly according to the manufacturer's instructions and added to the wells. Colour change was monitored by eye and the reaction was stopped by adding 100 mM sulphuric acid. Absorbance was read at 450 nm in a microplate reader (SPECTRAmax PLUS³⁸⁴, Molecular Device, U.S.A). The crystal structure of c-Met extracellular domain, accession number 1 SHY, was obtained from Protein Data Base (PDB). Computer imaging of the epitopes were analysed by PyMol (DeLano Scientific LLC, U.S.A) software.
Pepscan analysis was used to determine the region of c-Met α-chain bound by mAb 2. […] Binding of the antibody was detected by colorimetric assay and analysed by absorbance reading at […]. […]

- Increase mAb 2 binding in ascending order (rank) (peptide P15): 10
- Increase mAb 2 binding in ascending order (rank) (peptide O28 (human)): 11
- Increase mAb 2 binding in ascending order (rank) (peptide P9): 4
- Increase mAb 2 binding in ascending order (rank) (peptide P20): 9
- Increase mAb 2 binding in ascending order (rank) (peptide P7): 8
- Increase mAb 2 binding in ascending order (rank) (peptide P25): 3
- Increase mAb 2 binding in ascending order (rank) (peptide P10): 7
- Increase mAb 2 binding in ascending order (rank) (peptide P19): 6
- Increase mAb 2 binding in ascending order (rank) (peptide P17): 5
- binding result (peptide O27): no binding
B1: mAb 2 (antibody, IgG1, V domains shown)
VH: QVQLKESGGGLVQPGGSLTLSCATSGFTFTDHYMSWVRQPPGKALEWLAFIRNKAKGYTTEYNASVRGRFTISRDNSQNIVYLQMNTLRTEDSATYYCARDGVGIAYWGQGTLVTVSA
VL: SIVMTQSPLSLPVSLGDQASISCRSSQSLENINGNTYLNWYFQKPGQSPQLLIYRVSNRVSGVLDRFSGSGSGTDFTLKITRVEAEDLGVYFCLQVTHVPWTFGGGTKLEIK
notes: Murine monoclonal antibody purified from ascites (or hybridoma supernatant in the first Pepscan); constant regions are not; also called full length murine mAb 2
